One test relates to hIRF7 promoter. Nature of the test: NHR-promoter luciferase screen, hIRF7 promoter. Type of test: cell-based, human. Conditions: for Normalized Luc. act., normalized to control / Luc. act., normalized to lacZ: IRF7 promoter reporter; for Normalized Luc. act., normalized to control: HR without or with its ligand, relative to control; for Luc. act., normalized to lacZ: hormone receptor (HR) without or with its ligand; for hIRF7 promoter reporter activity: transcription factor +/- ligand, control = 1.00. The method in brief: (§1)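 CV-1 cells were co-transfected with 50 ng NHR (homodimer or NHR/RXR heterodimer), 100 ng promoter-luciferase construct and 50 ng LacZ. Luciferase was normalized to LacZ and to a no-NHR/no-ligand control.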

For another test, the system named is mLeptin promoter. Nature of the test: NHR-promoter luciferase screen, mLeptin promoter. Conditions: for Luc. act., normalized to lacZ / Normalized Luc. act., normalized to control: Table 7, mLeptin; for Results of assays of transcription factor (+/- ligand) with mLeptin: Table 6d, luciferase activity relative to control (control = 1.00). The test is classed as cell-based, mouse. The method, boiled down:
as §1

For a further test, the system named is mCAR promoter. Nature of the test: NHR-promoter luciferase screen, mCAR promoter. The test is classed as cell-based, mouse. Conditions: for luciferase activity normalized to lacZ activity and to a control, mCAR: mCAR promoter-luciferase, CV-1 cells, NHR +/- ligand, control = 1.00; for Luc. act., normalized to lacZ / Normalized Luc. act., normalized to control: mCAR promoter, HR/ligand component. The method, boiled down: as §1

A further test has as its system mUCP2 promoter. Nature of the test: NHR-promoter luciferase screen, mUCP2 promoter. Type of test: cell-based, mouse. Conditions: for Luc. act., normalized to lacZ / Normalized Luc. act., normalized to control: mUCP2 promoter reporter, co-transfected HR, with or without its ligand; for Normalized Luc. act., normalized to control: relative to control; for luciferase activity normalized to lacZ activity and to a control, mUCP2: mUCP2 promoter-luciferase, CV-1 cells, NHR +/- ligand, control = 1.00. The method in brief:
as §1

Another test concerns mPOMC promoter. Nature of the test: NHR-promoter luciferase screen, mPOMC promoter. Type of test: cell-based, mouse. Conditions: for Results of assays of transcription factor (+/- ligand) with mPOMC: Table 6d, luciferase activity relative to control (control = 1.00); for Luc. act., normalized to lacZ / Normalized Luc. act., normalized to control: mPOMC promoter, HR component with or without ligand; for Normalized Luc. act., normalized to control: relative to control. The method, boiled down:
as §1

In the next test the test system is hCYP3A4 promoter. Nature of the test: NHR-promoter luciferase screen, hCYP3A4 promoter. The test is classed as cell-based, human. Conditions: for Luc. act., normalized to lacZ / Normalized Luc. act., normalized to control: CYP3A4 promoter, HR/ligand component; for hCYP3A4 promoter reporter activity: transcription factor +/- ligand, control = 1.00. The method, boiled down: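 Luciferase reporter read-out after co-expression in CV-1 cells of V5H6-tagged receptor (alone or with RXR), the promoter construct and LacZ. Values are luciferase/LacZ relative to a control lacking NHR or ligand; orphan receptors tested ligand-free.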

B1: RORb: RAR-related Orphan Receptor β (NR1F2), cDNA driver (protein, UniProt Q92753 1-470, looked up)
Nuclear receptor ROR-beta: MCENQLKTKADATAQIEVIPCKICGDKSSGIHYGVITCEGCKGFFRRSQQNNASYSCPRQRNCLIDRTNRNRCQHCRLQKCLALGMSRDAVKFGRMSKKQRDSLYAEVQKHQQRLQEQRQQQSGEAEALARVYSSSISNGLSNLNNETSGTYANGHVIDLPKSEGYYNVDSGQPSPDQSGLDMTGIKQIKQEPIYDLTSVPNLFTYSSFNNGQLAPGITMTEIDRIAQNIIKSHLETCQYTMEELHQLAWQTHTYEEIKAYQSKSREALWQQCAIQITHAIQYVVEFAKRITGFMELCQNDQILLLKSGCLEVVLVRMCRAFNPLNNTVLFEGKYGGMQMFKALGSDDLVNEAFDFAKNLCSLQLTEEEIALFSSAVLISPDRAWLIEPRKVQKLQEKIYFALQHVIQKNHLDDETLAKLIAKIPTITAVCNLHGEKLQVFKQSHPEIVNTLFPPLYKELFNPDCATGCK
On to B1, for which, in the test with hIRF7 promoter, the “Normalized Luc. act., normalized to control” value stood at 1.6; the “Luc. act., normalized to lacZ” value came out at 40.9; the “hIRF7 promoter reporter activity” value is listed as 1.55. Further, in the test on mLeptin promoter, the “Luc. act., normalized to lacZ” value turned out to be 3.3; the “Normalized Luc. act., normalized to control” value is listed as 1.1; the “Results of assays of transcription factor (+/- ligand) with mLeptin” value (from here on “Results of assays … with mLeptin”) is listed as 1.12. For the same molecule, in the test with mCAR promoter, the “luciferase activity normalized to lacZ activity and to a control, mCAR” value (shortened to “luciferase activity normalized … mCAR”) is reported as 1.15; the “Luc. act., normalized to lacZ” value is 43.7; the “Normalized Luc. act., normalized to control” value came out at 1.1. Further, in the test with mUCP2 promoter, the “Luc. act., normalized to lacZ” value amounted to 176.2; the “Normalized Luc. act., normalized to control” value was found to be 1.6; the “luciferase activity normalized to lacZ activity and to a control, mUCP2” value (“luciferase activity normalized … mUCP2” for short) was found to be 1.60. Also, in the test with mPOMC promoter, the “Results of assays of transcription factor (+/- ligand) with mPOMC” value (“Results of assays … with mPOMC” for short) was found to be 1.29; the “Luc. act., normalized to lacZ” value is on record as 88.7; the “Normalized Luc. act., normalized to control” value came out at 1.3. Also, in the test on hCYP3A4 promoter, the “Luc. act., normalized to lacZ” value is listed as 2.5; the “Normalized Luc. act., normalized to control” value turned out to be 0.6; the “hCYP3A4 promoter reporter activity” value was 0.56.

B2: TR2: Testicular Orphan Nuclear Receptor 2 (NR2C1), cDNA driver (protein, UniProt P13056 1-603, looked up)
Nuclear receptor subfamily 2 …: MATIEEIAHQIIEQQMGEIVTEQQTGQKIQIVTALDHNTQGKQFILTNHDGSTPSKVILARQDSTPGKVFLTTPDAAGVNQLFFTTPDLSAQHLQLLTDNSPDQGPNKVFDLCVVCGDKASGRHYGAVTCEGCKGFFKRSIRKNLVYSCRGSKDCIINKHHRNRCQYCRLQRCIAFGMKQDSVQCERKPIEVSREKSSNCAASTEKIYIRKDLRSPLTATPTFVTDSESTRSTGLLDSGMFMNIHPSGVKTESAVLMTSDKAESCQGDLSTLANVVTSLANLGKTKDLSQNSNEMSMIESLSNDDTSLCEFQEMQTNGDVSRAFDTLAKALNPGESTACQSSVAGMEGSVHLITGDSSINYTEKEGPLLSDSHVAFRLTMPSPMPEYLNVHYIGESASRLLFLSMHWALSIPSFQALGQENSISLVKAYWNELFTLGLAQCWQVMNVATILATFVNCLHNSLQQDKMSTERRKLLMEHIFKLQEFCNSMVKLCIDGYEYAYLKAIVLFSPDHPSLENMEQIEKFQEKAYVEFQDYITKTYPDDTYRLSRLLLRLPALRLMNATITEELFFKGLIGNIRIDSVIPHILKMEPADYNSQIIGHSI
Regarding B2, in the test with hIRF7 promoter, the “Normalized Luc. act., normalized to control” value was determined as 1.0; the “Luc. act., normalized to lacZ” value is recorded as 25.8; the “hIRF7 promoter reporter activity” value is given as 0.98. Moreover, in the test on mLeptin promoter, the “Luc. act., normalized to lacZ” value is recorded as 3.4; the “Normalized Luc. act., normalized to control” value turned out to be 1.1; the “Results of assays … with mLeptin” value was 1.15. Moreover, in the test on mCAR promoter, the “luciferase activity normalized … mCAR” value is given as 0.81; the “Luc. act., normalized to lacZ” value is 31.0; the “Normalized Luc. act., normalized to control” value turned out to be 0.8. In the test with mUCP2 promoter, the “Luc. act., normalized to lacZ” value came out at 208.9; the “Normalized Luc. act., normalized to control” value was found to be 1.9; the “luciferase activity normalized … mUCP2” value came out at 1.90. In the test on mPOMC promoter, the “Results of assays … with mPOMC” value was determined as 1.92; the “Luc. act., normalized to lacZ” value amounted to 132.1; the “Normalized Luc. act., normalized to control” value is given as 1.9. Besides, in the test on hCYP3A4 promoter, the “Luc. act., normalized to lacZ” value was found to be 2.0; the “Normalized Luc. act., normalized to control” value was 0.4; the “hCYP3A4 promoter reporter activity” value is listed as 0.44.

B3: HNF4g: Hepatocyte Nuclear Factor γ (NR2A2), cDNA driver (protein, UniProt Q14541 1-408, looked up)
Hepatocyte nuclear factor …: MNTTDNGVNCLCAICGDRATGKHYGASSCDGCKGFFRRSIRKSHVYSCRFSRQCVVDKDKRNQCRYCRLRKCFRAGMKKEAVQNERDRISTRRSTFDGSNIPSINTLAQAEVRSRQISVSSPGSSTDINVKKIASIGDVCESMKQQLLVLVEWAKYIPAFCELPLDDQVALLRAHAGEHLLLGATKRSMMYKDILLLGNNYVIHRNSCEVEISRVANRVLDELVRPFQEIQIDDNEYACLKAIVFFDPDAKGLSDPVKIKNMRFQVQIGLEDYINDRQYDSRGRFGELLLLLPTLQSITWQMIEQIQFVKLFGMVKIDNLLQEMLLGGASNDGSHLHHPMHPHLSQDPLTGQTILLGPMSTLVHADQISTPETPLPSPPQGSGQEQYKIAANQASVISHQHLSKQKQL
With B3, in the test on hIRF7 promoter, the “Normalized Luc. act., normalized to control” value came to 1.2; the “Luc. act., normalized to lacZ” value is listed as 31.7; the “hIRF7 promoter reporter activity” value is 1.20. In addition, in the test on mLeptin promoter, the “Luc. act., normalized to lacZ” value is reported as 2.4; the “Normalized Luc. act., normalized to control” value stood at 0.8; the “Results of assays … with mLeptin” value is on record as 0.82. For the same molecule, in the test with mCAR promoter, the “luciferase activity normalized … mCAR” value is listed as 1.43; the “Luc. act., normalized to lacZ” value is recorded as 54.5; the “Normalized Luc. act., normalized to control” value is 1.4. In the test on mUCP2 promoter, the “Luc. act., normalized to lacZ” value was 114.8; the “Normalized Luc. act., normalized to control” value turned out to be 1.0; the “luciferase activity normalized … mUCP2” value is 1.04. In the test with mPOMC promoter, the “Results of assays … with mPOMC” value amounted to 1.07; the “Luc. act., normalized to lacZ” value was 73.9; the “Normalized Luc. act., normalized to control” value is on record as 1.1. Further, in the test with hCYP3A4 promoter, the “Luc. act., normalized to lacZ” value is 1.8; the “Normalized Luc. act., normalized to control” value amounted to 0.4; the “hCYP3A4 promoter reporter activity” value is on record as 0.40.
